Results published in article PMC8384840.
Each block holds one substance with its values, some of them ahead of it.

How the values were obtained:
[1] = target: Lactate dehydrogenase (LDH) from rabbit muscle (rabbit) (UniProt P13491)
[2] = target: Lactate dehydrogenase (LDH) from rabbit muscle (rabbit) (UniProt P13491); remark: listed apart in the source
[3] = target: Lactate dehydrogenase (LDH) from rabbit muscle (rabbit) (UniProt P13491); test: SEC; 2 µM luciferase (45 °C) or LDH (55 °C) heat shocked 15 min with 20 µM HSPB1 construct, or the HSPB1 construct heat shocked alone; analysed at the start (0 h) of the disaggregation reaction; Superose 12, reaction buffer, 4 °C; fractions detected by immunoblot
HSPB1-3D = HSPB1-3D (UniProt P04792); test: as above
[4] = target: Lactate dehydrogenase (LDH) from rabbit muscle (rabbit) (UniProt P13491); test: SEC; native luciferase or LDH alone; Superose 12 10/300 GL, reaction buffer, 4 °C; 1 mL fractions detected by immunoblot

decrease of the optical density at 320 nm (light scattering) of 2 µM LDH aggregating at 55 °C with 20 µM HSPB1-3D, against LDH alone [1]: 90%
Substance: HSPB1-3D (from UniProt P04792 1-205) (natural protein)

decrease of the optical density at 320 nm (light scattering) of 2 µM LDH aggregating at 55 °C with 20 µM HSPB1-3D-GxG, against LDH alone [2]: 95% | percent of HSPB1-3D-GxG in the large molecular size fractions after heat shock with LDH [3]: 20%
Substance: HSPB1-3D-GxG (from UniProt P04792 1-205) (natural protein)

Substance: Lactate dehydrogenase (LDH) from rabbit muscle
percent of total HSPB1-3D in the high molecular size fractions (7-9 mL) after heat shock with the substrate (HSPB1-3D): ~ 20% and 40%, respectively, of the total amount of HSPB1-3D was found in high molecular size fractions

stoichiometry N [4]: 4
Substance: Lactate dehydrogenase (LDH) from rabbit muscle (from UniProt P13491 1-332) (enzyme)
